B1: CPEB3 Ribozyme (parent)
chain: GGGGGCCACAGCAGAAGCGUUCACGUCGCGGCCCCUGUCAGAUUCUGGUGAAUCUGCGAAUUCUGCUGU

Variants of: B1
Test: self-cleavage, relative activity (ratio to wild type); higher = more cleavage; co-transcriptional

Going from GGGGGCCACAGCAGAAGCGUUCACGUCGCGGCCCCUGUCAGACUCUGGUGAAUUUGCGAAUUCUGCUGU to GGGGGCCACAGCAGAAGCGUUCACGUCGCGGCCCCUGUCAGACUCUGGUGAAUCUACGAAUUCUGCUGU, the self-cleavage falls from 0.905 to 0.861.

Going from GGGGGCCACAGCAGAAGCGUUCACGUCGCGGCCCCUGUCAGACUCUGGUGAAUCUCCGAAUUCUGCUGU to GGGGGCCACAGCAGAAGCGUUCACGUCGCGGCCCCUGUCAGACUCUGGUGAAUCUGCGAAUUCUGCAGU, the self-cleavage rises from 0.494 to 0.98.

Compared with GGGGGCCACAGCAGAAGCGUUCACGUCGCGGCCCCUGUCAGACUCUGGUGAAUCUGCGAAUUCUGCGGU, GGGGGCCACAGCAGAAGCGUUCACGUCGCGGCCCCUGUCAGACUCUGGUGAAUCUGCGAAUUCUGCCGU is lower in self-cleavage: 1.01 for the first, 0.969 for the second.

Compared with GGGGGCCACAGCAGAAGCGUUCACGUCGCGGCCCCUGUCAGACUCUCGUGAAUCUGCGAAUUCUGCUGU, GGGGGCCACAGCAGAAGCGUUCACGUCGCGGCCCCUGUCAGACUCUAGUGAAUCUGCGAAUUCUGCUGU is higher in self-cleavage: 1.01 for the first, 1.02 for the second.

First: GGGGGCCACAGCAGAAGCGUUCACGUCGCGGCCCCUGUCAGACUCUGGUGAAACUGCGAAUUCUGCUGU
Second: GGGGGCCACAGCAGAAGCGUUCACGUCGCGGCCCCUGUCAGACUCUGGUGAAUCUGCUAAUUCUGCUGU
The self-cleavage of the first is lower: 0.92 for the first, 0.975 for the second.

First: GGGGGCCACAGCAGAAGCGUUCACGUCGCGGCCCCUGUCAGACUCUGGUGAAUCUGCAAAUUCUGCUGU
Second: GGGGGCCACAGCAGAAGCGUUCACGUCGCGGCCCCUGUCAGACUCUGGUGAAUCUGCGAAUUGUGCUGU
The self-cleavage of the first is higher: 0.943 for the first, 0.648 for the second.

Compared with GGGGGCCACAGCAGAAGCGUUCACGUCGCGGCCCCUGUCAGACUCUGGUGAAUCUGCGAAUUAUGCUGU, GGGGGCCACAGCAGAAGCGUUCACGUCGCGGCCCCUGUCAGACUCUGGUGAAUCUGCGAAUUCUGUUGU is higher in self-cleavage: 0.619 for the first, 0.89 for the second.

Compared with GGGGGCCACAGCAGAAGCGUUCACGUCGCGGCCCCUGUCAGACUCUGGUGAAUCUGCGAAUUCUGGUGU, GGGGGCCACAGCAGAAGCGUUCACGUCGCGGCCCCUGUCAGAGUCUGGUGAAUCUGCGAAUUCUGCUGU is higher in self-cleavage: 0.806 for the first, 0.929 for the second.

Compared with GGGGGCCACAGCAGAAGCGUUCACGUCGCGGCCCCUGUCAGAGUCUGGUGGAUCUGCGAAUUCUGCUGU, GGGGGCCACAGCAGAAGCGUUCACGUCGCGGCCCCUGUCAGAGUCUGGUGCAUCUGCGAAUUCUGCUGU is higher in self-cleavage: 0.901 for the first, 0.941 for the second.

Compared with GGGGGCCACAGCAGAAGCGUUCACGUCGCGGCCCCUGUCAGACUCCGGUGAAUCUGCGAAUUCUGCUGU, GGGGGCCACAGCAGAAGCGUUCACGUCGCGGCCCCUGUCAGACUCGGGUGAAUCUGCGAAUUCUGCUGU is higher in self-cleavage: 0.939 for the first, 0.97 for the second.

Compared with GGGGGCCACAGCAGAAGCGUUCACGUCGCGGCCCCUGUCAGACUCAGGUGAAUCUGCGAAUUCUGCUGU, GGGGGCCACAGCAGAAGCGUUCACGUCGCGGCCCCUGUCAGACUCUGGUGAAUCUGGGAAUUCUGCUGU is lower in self-cleavage: 0.985 for the first, 0.308 for the second.

First: GGGGGCCACAGCAGAAGCGUUCACGUCGCGGCCCCUGUCAGACUCUGGUGAAUCUGAGAAUUCUGCUGU
Second: GGGGGCCACAGCAGAAGCGUUCACGUCGCGGCCCCUGUCAGACUCUGGUGAAUCUGCGAAUCCUGCUGU
The self-cleavage of the first is lower: 0.298 for the first, 0.86 for the second.

First: GGGGGCCACAGCAGAAGCGUUCACGUCGCGGCCCCUGUCAGACUCUGGUGAAUCUGCGAAUACUGCUGU
Second: GGGGGCCACAGCAGAAGCGUUCACGUCGCGGCCCCUGUCAGACUCUGCUGAAUCUGCGAAUUCUGCUGU
The self-cleavage of the first is lower: 0.769 for the first, 1 for the second.

Going from GGGGGCCACAGCAGAAGCGUUCACGUCGCGGCCCCUGUCAGACUCUGUUGAAUCUGCGAAUUCUGCUGU to GGGGGCCACAGCAGAAGCGUUCACGUCGCGGCCCCUGUCAGACUCUGGUGAAUCUGCGAAUUCUCCUGU, the self-cleavage falls from 0.998 to 0.567.

First: GGGGGCCACAGCAGAAGCGUUCACGUCGCGGCCCCUGUCAGACUCUGGCGAAUCUGCGAAUUCUGCUGU
Second: GGGGGCCACAGCAGAAGCGUUCACGUCGCGGCCCCUGUCAGACUCUGGUAAAUCUGCGAAUUCUGCUGU
The self-cleavage of the first is higher: 0.984 for the first, 0.956 for the second.

Compared with GGGGGCCACAGCAGAAGCGUUCACGUCGCGGCCCCUGUCAGACUCUGGUGAAUCUGCGAAUUCUGCUGA, GGGGGCCACAGCAGAAGCGUUCACGUCGCGGCCCCUGUCAGACUCUGGUGAAUCAGCGAAUUCUGCUGU is lower in self-cleavage: 1.01 for the first, 0.632 for the second.

Compared with GGGGGCCACAGCAGAAGCGUUCACGUCGCGGCCCCUGUCAGACUCUGGUGAAUCCGCGAAUUCUGCUGU, GGGGGCCACAGCAGAAGCGUUCACGUCGCGGCCCCUGUCAGACUCUGGUGAAUCUGCGAAUUCGGCUGU is higher in self-cleavage: 0.455 for the first, 0.825 for the second.

Compared with GGGGGCCACAGCAGAAGCGUUCACGUCGCGGCCCCUGUCAGACUCUGGUGAAUCUGCGAAUUCAGCUGU, GGGGGCCACAGCAGAAGCGUUCACGUCGCGGCCCCUGUCAGACUCUGGUGAAUCUGCGAAUUCCGCUGU is lower in self-cleavage: 0.713 for the first, 0.671 for the second.

Compared with GGGGGCCACAGCAGAAGCGUUCACGUCGCGGCCCCUGUCAGACCCUGGUGAAUCUGCGAAUUCUGCUGU, GGGGGCCACAGCAGAAGCGUUCACGUCGCGGCCCCUGUCAGACACUGGUGAAUCUGCGAAUUCUGCUGU is higher in self-cleavage: 0.937 for the first, 1.02 for the second.

For GGGGGCCACAGCAGAAGCGUUCACGUCGCGGCCCCUGUCAGACUCUGGUGAAUCUGCGAAUUCUGCUUU, the self-cleavage was 1.
